One block for each molecule: values may come before it.
How the values were obtained:
[1] = biological target: Csm2 with a 6-His tag on the N-terminus (Csm2^H6N) (S. epidermidis RP62a); experiment: co-purification
[2] = biological target: recombinant Csm3 (untagged) (S. epidermidis); experiment: native gel or EMSA
native gel or EMSA = biological target: the molecule itself; experiment: native gel or EMSA
[3] = biological target: Csm5–Smt3 (Csm5 with an N-terminal His10Smt3 tag) (S. epidermidis); experiment: pull-down

% Csm3 band intensity of the total band intensity of the purified complex [1]: 18%
Molecule: Csm3 (wild type, in the Cas10–Csm complex) (natural protein)

% Csm3 band intensity of the total band intensity of the purified complex [1]: 12%
Molecule: Csm3 D179A (in the Cas10–Csm complex) (natural protein)

stoichiometry N [2]: 6
Molecule: recombinant Csm3 (untagged) (natural protein)

PNPase signal intensity as % of total signal in the eluate [3]: 5.9%
B1: recombinant polynucleotide phosphorylase (PNPase), untagged (enzyme, S. epidermidis RP62a, UniProt Q5HPR7 1-701, looked up)
chain: MSQEKKVFKTEWAGRSLTIETGQLAKQANGAVLVRYGDTVVLSTATASKEPRDGDFFPLTVNYEEKMYAAGKIPGGFKKREGRPGDEATLTARLIDRPIRPLFPKGYRHDVQIMNIVLSADPDCSPEMAAMIGSSMALSVSDIPFQGPIAGVNVGYIDGKYVINPSVADKEISRLDLEVAGHKDAVNMVEAGASEITESEMLEAIFFGHEEIKRLVAFQQEIIDHIQPIKQEFVPVERDEDLVEKVKSLTEDKGLKDTVLTFDKQQRDENLDALKEEVVGHFLDEEDPENETLVKEVYAILNDLIKEEVRRLIADEKIRPDGRKVDEIRPLESEVGLLPRAHGSGLFTRGQTQALSVLTLGALGDYQLIDGLGPEVEKRFMHHYNFPNFSVGETGPVRAPGRREIGHGALGERALRYIIPDTQDFPYTIRIVSEVLESNGSSSQASICGSTLALMDAGVPIKAPVAGIAMGLVTRDDSYTILTDIQGMEDALGDMDFKVAGTKDGITAIQMDIKIDGLTREVIEEALEQARQGRLAIMDHMLHTIEQPREELSAYAPKVVTMSINPDKIRDVIGPGGKKINEIIDETGVKLDIEQDGTIFIGAVDQAMINRAKEIIEDITREAEVGQVYHAKVKRIEKYGAFVELFPGKDALLHISQISQERINKVEDVLKIGDTIEVKITEIDKQGRVNASHKVLEQSKN
stoichiometry N (native gel or EMSA): 3

Source: PMC5389561 (Nucleic Acids Research, 2016)
